Reference: patent US20060030020A1

Experiments:
[1] = target: mouse monoclonal anti-β-gal antibody (Promega, Madison, Wis.); assay: single round of affinity selection on wells coated with anti-β-gal antibodies
[2] = target: mouse monoclonal anti-β-gal antibody (Promega, Madison, Wis.); assay: affinity selection on wells coated with anti-β-gal antibody; input λβ-gal/λV′sac 10^3/10^6
[3] = target: mouse monoclonal anti-β-gal antibody (Promega, Madison, Wis.); assay: affinity selection on wells coated with anti-β-gal antibody; input λβ-gal/λV′sac 10^3/10^7
[4] = target: mouse monoclonal anti-β-gal antibody (Promega, Madison, Wis.); assay: affinity selection on wells coated with anti-β-gal antibody; input λβ-gal/λV′sac 10^3/10^8
[5] = target: mouse monoclonal anti-β-gal antibody (Promega, Madison, Wis.); assay: affinity selection on wells coated with anti-β-gal antibody; input λβ-gal/λV′sac 10^3/10^9
[6] = target: mouse monoclonal anti-β-gal antibody (Promega, Madison, Wis.); assay: affinity selection on wells coated with anti-β-gal antibody; input λβ-gal/λV′sac 10^4/10^7
[7] = target: mouse monoclonal anti-β-gal antibody (Promega, Madison, Wis.); assay: affinity selection on wells coated with anti-β-gal antibody; input λβ-gal/λV′sac 10^4/10^8
[8] = target: mouse monoclonal anti-β-gal antibody (Promega, Madison, Wis.); assay: affinity selection on wells coated with anti-β-gal antibody; input λβ-gal/λV′sac 10^4/10^9
[9] = target: mouse monoclonal anti-β-gal antibody (Promega, Madison, Wis.); assay: affinity selection on wells coated with anti-β-gal antibody; input λβ-gal/λV′sac 10^3/10^10
[10] = target: mouse monoclonal anti-β-gal antibody (Promega, Madison, Wis.); assay: affinity selection on wells coated with anti-β-gal antibody; input λβ-gal/λV′sac 10^4/10^10
[11] = target: mouse monoclonal anti-β-gal antibody (Promega, Madison, Wis.); assay: affinity selection on wells coated with anti-β-gal antibody, collagenase elution, plaques counted on X-gal; input λβ-gal/λV′sac 10^3/10^6
[12] = target: mouse monoclonal anti-β-gal antibody (Promega, Madison, Wis.); assay: affinity selection on wells coated with anti-β-gal antibody, collagenase elution, plaques counted on X-gal; input λβ-gal/λV′sac 10^3/10^7
[13] = target: mouse monoclonal anti-β-gal antibody (Promega, Madison, Wis.); assay: affinity selection on wells coated with anti-β-gal antibody, collagenase elution, plaques counted on X-gal; input λβ-gal/λV′sac 10^3/10^8
[14] = target: mouse monoclonal anti-β-gal antibody (Promega, Madison, Wis.); assay: affinity selection on wells coated with anti-β-gal antibody, collagenase elution, plaques counted on X-gal; input λβ-gal/λV′sac 10^3/10^9
[15] = target: mouse monoclonal anti-β-gal antibody (Promega, Madison, Wis.); assay: affinity selection on wells coated with anti-β-gal antibody, collagenase elution, plaques counted on X-gal; input λβ-gal/λV′sac 10^4/10^7
[16] = target: mouse monoclonal anti-β-gal antibody (Promega, Madison, Wis.); assay: affinity selection on wells coated with anti-β-gal antibody, collagenase elution, plaques counted on X-gal; input λβ-gal/λV′sac 10^4/10^8
[17] = target: mouse monoclonal anti-β-gal antibody (Promega, Madison, Wis.); assay: affinity selection on wells coated with anti-β-gal antibody, collagenase elution, plaques counted on X-gal; input λβ-gal/λV′sac 10^4/10^9
[18] = target: mouse monoclonal anti-β-gal antibody (Promega, Madison, Wis.); assay: affinity selection on wells coated with anti-β-gal antibody, collagenase elution, plaques counted on X-gal; input λβ-gal/λV′sac 10^3/10^10
[19] = target: mouse monoclonal anti-β-gal antibody (Promega, Madison, Wis.); assay: affinity selection on wells coated with anti-β-gal antibody, collagenase elution, plaques counted on X-gal; input λβ-gal/λV′sac 10^4/10^10
[20] = target: mucin of bovine submaxillary glands (Sigma, St. Louis, Mo.) (bovine); assay: affinity selection on wells coated with mucin, 1 mM CaCl2, collagenase elution

λβ-gal phage particles grown on MC8 (su+), displaying the β-gal multimer (pV′-β-gal fusion protein assembled with β-gal monomers) on the phage tail (from UniProt P00722 10-1024)
average efficiency of recovery (% of the input phage) [1]: 1 | Enrichment (fold over λV′sac) [2]: > 8000 | Enrichment (fold over λV′sac) [3]: 2000 | Enrichment (fold over λV′sac) [4]: 80000 | Enrichment (fold over λV′sac) [5]: 280000 | Enrichment (fold over λV′sac) [6]: 16000 | Enrichment (fold over λV′sac) [7]: 170000 | Enrichment (fold over λV′sac) [8]: 300000 | Enrichment (fold over λV′sac) [9]: 530000 | Enrichment (fold over λV′sac) [10]: 770000 | Output Phage [11]: 8 plaques | Output Phage [12]: 10 plaques | Output Phage [13]: 8 plaques | Output Phage [14]: 99 plaques | Output Phage [15]: 96 plaques | Output Phage [16]: 168 plaques | Output Phage [17]: 108 plaques | Output Phage [18]: 5 plaques | Output Phage [19]: 129 plaques

B1: λV′sac phage particles grown on MC8 (su+), reference phage (protein)
chain: MPVPNPTMPVKGAGTTLWVYKGSGDPYANPLSDVDWSRLAKVKDLTPGELTAESYDDSYLDDEDADWTATGQGQKSAGDTSFTLAWMPGEQGQQALLAWFNEGDTRAYKIRFPNGTVDVFRGWVSSIGKAVTAKEVITRTVKVTNVGRPSMAEDRSTVTAATGMTVTPASTSVVKG
Output Phage [11]: 0 plaques | Output Phage [12]: 5 plaques | Output Phage [13]: 11 plaques | Output Phage [14]: 32 plaques | Output Phage [15]: 6 plaques | Output Phage [16]: 25 plaques | Output Phage [17]: 39 plaques | Output Phage [18]: 106 plaques | Output Phage [19]: 162 plaques

B2: λBPA phage particles grown on MC8 (su+), displaying the BPA (Bauhinia purpurea lectin) multimer (pV′-BPA fusion protein assembled with BPA monomers) (protein, part only; not given: amber residue and junction residues, part only)
chain, part: MPVPNPTMPVKGAGTTLWVYKGSGDPYANPLSDVDWSRLAKVKDLTPGELTAESYDDSYLDDEDADWTATGQGQKSAGDTSFTLAWMPGEQGQQALLAWFNEGDTRAYKIRFPNGTVDVFRGWVSSIGKAVTAKEVITRTVKVTNVGRPSMAEDRSTVTAATGMTVTPASTSVVKGSWPVRPTPTPTTPTPTPTPTPTPTPTVGPIVTQETATSSTLTGFTFPNFWSNTQENGTEIIFLGNATYTPGALRLTRIGEDGIPLKSNAGQASYSRPVFLWDSTGHVASFYTSFSFIVRSIDVPHITADGFAFFLAPVDSSVKDYGGCLGLFRYKTATDPSKNQVVAVEFDTWPNTEWSDLRYPHIGINVNSTVSVATTRWDNDDAYVTKSTAHITYDATSKIITVLLTYDNGRHYQLSHVVDLPKILPERVRIGFSGGTGFNETQYILSWSFTSTLNSTKISALTQKLRSSASYSSM
chain: TSSTLTGFTFPNFWSNTQENGTEIIFLGNATYTPGALRLTRIGEDGIPLKSNAGQASYSRPVFLWDSTGHVASFYTSFSFIVRSIDVPHITADGFAFFLAPVDSSVKDYGGCLGLFRYKTATDPSKNQVVAVEFDTWPNTEWSDLRYPHIGINVNSTVSVATTRWDNDDAYVTKSTAHITYDATSKIITVLLTYDNGRHYQLSHVVDLPKILPERVRIGFSGGTGFNETQYILSWSFTSTLNSTKISALTQKLRSSASYSSM
recovery of input phage (% of input phage) [20]: 0.01
